# Measurements as given in the supplement of paper PMC7877785.
# ± gives the uncertainty stated by the source.
# Assay: self-splicing fitness, log relative to wild type (ln ratio); higher = more splicing; Tetrahymena group I intron in knt gene, E. coli kanamycin selection, DiMSum; sequences stand for … in CUCUCU…GGAGGGAAAAGUUAUCAGGCAUGCACCUGGUAGCUAGUCUUUAAACCAAUAGAUUGCAUCGGUUUAAAAGGCAAGACCGUCAAAUUGCGGGAAAGGGGUCAACAGCCGUUCAGUACCAAGUCUCAGGGGAAACUUUGAGAUGGCCUUGCAAAGGGUAUGGUAAUAAGCUGACGGACAUGGUCCUAACCACGCAGCCAAGUCCUAAGUCAACAGAUCUUCUGUUGAUAUGGAUGCAGUUCACAGACUAAAUGUCGGUCGGGGAAGAUGUAUUCUUCUCAUAAGAUAUAGUCGGACCUCUCCUUAAUGGGAGCUAGCGGAUGAAGUGAUGCAACACUGGAGCCGCUGGGAACUAAUUUGUAUGCGAAAGUAUAUUGAUUAGUUUUGGAGUACUCGUGGUCG
# Summary of the method: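 DiMSum derived fitness as the error-weighted combination of fold changes across replicates, kanamycin versus no kanamycin, normalised to wild type. E. coli BL21(DE3) held the library, which randomised all eight P1ex-region intron nucleotides within the knt kanamycin-resistance gene on pET-22b(+). Six replicate transformations grew overnight at 37°C or 30°C on LB agar with or without 25 μg/mL kanamycin, also containing 100 μg/mL carbenicillin, 50 μM IPTG and 0.2% rhamnose, and pooled colonies were amplicon-sequenced on an Illumina HiSeq 2500.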
Sequence,self-splicing fitness (ln) (30 °C),self-splicing fitness (ln) (37 °C)
AGUGAGCAAUAUUACGGUCC,-0.948 ± 0.12,-0.741 ± 0.15
AUUUAGCAAUAUUACGGUCC,-2.72 ± 0.17,-0.126 ± 0.15
GCGCAGCAAUAUUACGGGCG,-3.71 ± 0.47,-3.03 ± 0.4
UUGUAGCAAUAUUACGAGGU,-2.82 ± 0.2,-2.61 ± 0.36
AGUGAGCAAUAUUACGGUAA,,-1.43 ± 0.34
CCGGAGCAAUAUUACGCACG,,-0.516 ± 0.21
GGAAAGCAAUAUUACGUAGG,-3.23 ± 0.12,-2.23 ± 0.14
GCGCAGCAAUAUUACGACAA,-0.598 ± 0.12,-0.342 ± 0.11
CCAAAGCAAUAUUACGGCCA,-2.38 ± 0.24,-2.76 ± 0.33
CGCAAGCAAUAUUACGAGGG,-3.85 ± 0.23,-2.9 ± 0.32
GAACAGCAAUAUUACGGUUU,-3.41 ± 0.13,-1.34 ± 0.14
CAAGAGCAAUAUUACGCGUA,-2.2 ± 0.27,-1.95 ± 0.25
AUGCAGCAAUAUUACGUUCG,-0.728 ± 0.059,-0.798 ± 0.089
CGCGAGCAAUAUUACGAUAC,-3.81 ± 0.3,-2.56 ± 0.28
UCGUAGCAAUAUUACGAAGU,-3.58 ± 0.47,-3.06 ± 0.35
AAUUAGCAAUAUUACGUAAA,-1.3 ± 0.11,-0.736 ± 0.18
UCACAGCAAUAUUACGGAGG,-3.27 ± 0.15,-2.29 ± 0.19
UUUUAGCAAUAUUACGGAUU,-1.8 ± 0.1,-1.36 ± 0.15
GGUAAGCAAUAUUACGGAAU,-3.35 ± 0.22,-1.87 ± 0.22
GGAUAGCAAUAUUACGGUAG,,-3.74 ± 0.34
CGUGAGCAAUAUUACGGAUC,-4.24 ± 0.33,-1.88 ± 0.25
UCAAAGCAAUAUUACGAGAA,-3.28 ± 0.34,-1.48 ± 0.25
CCCCAGCAAUAUUACGGCCU,-3.02 ± 0.29,-2.82 ± 0.47
UAGGAGCAAUAUUACGAGAC,-2.26 ± 0.29,
GCGUAGCAAUAUUACGUAGU,-2.27 ± 0.21,-0.677 ± 0.14

Sequence,self-splicing fitness (ln) (30 °C),self-splicing fitness (ln) (37 °C)
UUCCAGCAAUAUUACGAGAG,-1.82 ± 0.093,-0.571 ± 0.13
ACGAAGCAAUAUUACGAGUA,-3.49 ± 0.21,-2.73 ± 0.17
AAGUAGCAAUAUUACGAAGA,-2.57 ± 0.34,-2.06 ± 0.34
UAGAAGCAAUAUUACGAGAC,-2.67 ± 0.35,-1.99 ± 0.3
CUUCAGCAAUAUUACGAGUG,-0.689 ± 0.051,-0.602 ± 0.071
AACUAGCAAUAUUACGAUAC,-3.15 ± 0.23,-1.24 ± 0.34
UGUAAGCAAUAUUACGAGCU,-0.434 ± 0.16,0.293 ± 0.16
CUUUAGCAAUAUUACGUAAA,,-2.24 ± 0.28
GUGAAGCAAUAUUACGAAUA,-1.91 ± 0.1,-0.485 ± 0.23
UCUCAGCAAUAUUACGUGAU,-4.03 ± 0.21,-1.85 ± 0.13
GACCAGCAAUAUUACGAGAU,-2.62 ± 0.12,-1.05 ± 0.084
CCCUAGCAAUAUUACGCCGA,-3.85 ± 0.33,-2.31 ± 0.3
GUACAGCAAUAUUACGGACG,-3.05 ± 0.14,-0.547 ± 0.12
UUGAAGCAAUAUUACGGCGA,0.203 ± 0.088,0.256 ± 0.12
UACCAGCAAUAUUACGUCUG,-3.46 ± 0.13,-2.46 ± 0.12
GCCGAGCAAUAUUACGUCUG,-3.36 ± 0.32,-2 ± 0.27
GCUAAGCAAUAUUACGCUUG,-3.24 ± 0.17,-1.71 ± 0.18
CAGGAGCAAUAUUACGGAUG,-2.46 ± 0.13,-2.02 ± 0.17
UCUGAGCAAUAUUACGCCGU,-3.13 ± 0.48,-1.56 ± 0.36
GCGCAGCAAUAUUACGGAGA,-4.36 ± 0.42,-1.69 ± 0.19
UAGAAGCAAUAUUACGACUA,-0.222 ± 0.11,0.71 ± 0.14
UAAGAGCAAUAUUACGCCAU,-2.59 ± 0.46,-1.46 ± 0.38
CAUAAGCAAUAUUACGGGAU,-3.51 ± 0.16,-2.3 ± 0.2
CAGAAGCAAUAUUACGAGAA,,-2.3 ± 0.35
AAAGAGCAAUAUUACGUUAA,-3.16 ± 0.25,-2.28 ± 0.28
